The target of one test is T1, PKC-α, purified isoform (UniProt P17252 1-672).
T1 construct: also called PKC-alpha; protein kinase C alpha
In words: purified isoform competition ELISA, summary grade. Background: In an ELISA, binding on a coated surface is turned into a signal by an enzyme label.

The next test deals with T2, PKC-βI, purified isoform (UniProt P05771-1 1-671).
T2 construct: also called PKC-beta I; beta 1
In words: purified isoform competition ELISA, summary grade.

Test [1] deals with T3, PKC-ε, purified isoform (UniProt Q02156 1-737).
T3 construct: also called PKC-epsilon; epsilon
T3 sequence (looked up): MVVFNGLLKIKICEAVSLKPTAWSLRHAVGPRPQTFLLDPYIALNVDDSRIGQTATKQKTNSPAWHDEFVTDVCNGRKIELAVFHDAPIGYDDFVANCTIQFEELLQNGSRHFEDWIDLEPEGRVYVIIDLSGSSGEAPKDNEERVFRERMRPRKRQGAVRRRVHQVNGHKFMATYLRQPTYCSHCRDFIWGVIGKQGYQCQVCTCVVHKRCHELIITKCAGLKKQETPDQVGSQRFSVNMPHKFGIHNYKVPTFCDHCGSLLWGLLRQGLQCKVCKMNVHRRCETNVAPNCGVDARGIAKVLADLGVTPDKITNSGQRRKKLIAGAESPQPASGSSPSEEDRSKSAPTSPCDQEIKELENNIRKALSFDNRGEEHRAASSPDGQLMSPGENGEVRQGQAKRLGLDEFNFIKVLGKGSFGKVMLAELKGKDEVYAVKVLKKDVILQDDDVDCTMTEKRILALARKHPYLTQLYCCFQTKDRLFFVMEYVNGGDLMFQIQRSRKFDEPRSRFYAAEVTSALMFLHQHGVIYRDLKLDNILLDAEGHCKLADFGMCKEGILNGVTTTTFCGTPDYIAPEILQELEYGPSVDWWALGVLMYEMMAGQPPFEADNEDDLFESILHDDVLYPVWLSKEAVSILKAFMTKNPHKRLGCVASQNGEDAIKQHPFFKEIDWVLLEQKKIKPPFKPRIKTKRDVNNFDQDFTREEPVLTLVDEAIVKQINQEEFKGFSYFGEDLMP
In words: purified isoform competition ELISA, summary grade.

Test [2] addresses T3, PKC-ε, purified isoform. Description: competition ELISA on coated purified PKC-ε vs anti-PKC ε antibody; PRE 50 µM.
Test [3] has as its target T3, PKC-ε, purified isoform. In words: competition ELISA on coated purified PKC-ε vs anti-PKC ε antibody; PRE 100 µM.
Test [4] deals with T3, PKC-ε, purified isoform. Description: competition ELISA on coated purified PKC-ε vs anti-PKC ε antibody; PRE 200 µM.
For test [5], the target named is T4, PKC-ι in extracts of human cell lines (human, UniProt P41743 2-596).
T4 construct: Denatured on the Western blot membrane; also called PKC-iota (cell extract)
T4 sequence (looked up): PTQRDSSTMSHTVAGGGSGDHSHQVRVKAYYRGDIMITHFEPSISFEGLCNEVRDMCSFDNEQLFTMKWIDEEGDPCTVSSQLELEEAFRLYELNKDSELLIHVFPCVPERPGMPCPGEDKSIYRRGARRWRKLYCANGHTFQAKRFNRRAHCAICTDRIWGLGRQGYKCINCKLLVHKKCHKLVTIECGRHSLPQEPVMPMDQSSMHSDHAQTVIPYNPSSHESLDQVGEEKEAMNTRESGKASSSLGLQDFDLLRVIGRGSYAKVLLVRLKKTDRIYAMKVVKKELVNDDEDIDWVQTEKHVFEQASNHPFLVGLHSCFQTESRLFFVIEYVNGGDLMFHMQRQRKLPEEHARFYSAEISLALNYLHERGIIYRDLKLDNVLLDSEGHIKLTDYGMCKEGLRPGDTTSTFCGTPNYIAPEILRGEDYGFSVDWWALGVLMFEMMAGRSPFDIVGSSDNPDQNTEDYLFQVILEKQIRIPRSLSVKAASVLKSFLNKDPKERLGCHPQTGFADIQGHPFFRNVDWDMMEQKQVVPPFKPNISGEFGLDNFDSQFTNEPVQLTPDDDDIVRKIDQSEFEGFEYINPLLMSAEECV
Description: Western-blot competition, cell extracts: PRE at 10X/20X the anti-PKC iota primary antibody concentration competes with that antibody; band densitometry (lower band = PRE bound).

For test [6], the target named is T5, PKC-ζ in extracts of human cell lines (human, UniProt Q05513 1-592).
T5 construct: Denatured on the Western blot membrane; also called PKC-zeta (cell extract)
T5 sequence (looked up): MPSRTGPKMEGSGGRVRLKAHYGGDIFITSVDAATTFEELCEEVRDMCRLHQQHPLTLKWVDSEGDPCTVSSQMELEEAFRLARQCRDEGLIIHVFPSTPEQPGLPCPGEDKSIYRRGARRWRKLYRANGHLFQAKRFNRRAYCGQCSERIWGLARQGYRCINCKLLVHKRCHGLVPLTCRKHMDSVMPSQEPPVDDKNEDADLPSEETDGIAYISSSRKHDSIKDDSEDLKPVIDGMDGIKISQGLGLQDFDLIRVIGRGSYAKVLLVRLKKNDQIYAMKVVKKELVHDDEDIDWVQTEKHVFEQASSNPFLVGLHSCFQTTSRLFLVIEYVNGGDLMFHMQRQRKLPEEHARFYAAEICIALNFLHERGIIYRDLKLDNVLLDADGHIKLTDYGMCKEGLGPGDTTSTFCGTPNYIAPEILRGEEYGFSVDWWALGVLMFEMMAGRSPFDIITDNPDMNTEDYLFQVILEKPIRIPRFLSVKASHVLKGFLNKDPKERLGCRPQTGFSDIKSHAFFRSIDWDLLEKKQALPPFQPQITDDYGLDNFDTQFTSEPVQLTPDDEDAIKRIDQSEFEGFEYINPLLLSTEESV
Description: Western-blot competition, cell extracts: PRE at 10X/20X the anti-PKC zeta primary antibody concentration competes with that antibody; band densitometry (lower band = PRE bound).

For test [7], the target named is T6, PKC-βI in extracts of human cell lines (human, UniProt P05771-1 2-671).
T6 construct: Denatured on the Western blot membrane; beta I splice form; also called PKC-beta I (cell extract)
T6 sequence (P05771 2-671 limits assumed): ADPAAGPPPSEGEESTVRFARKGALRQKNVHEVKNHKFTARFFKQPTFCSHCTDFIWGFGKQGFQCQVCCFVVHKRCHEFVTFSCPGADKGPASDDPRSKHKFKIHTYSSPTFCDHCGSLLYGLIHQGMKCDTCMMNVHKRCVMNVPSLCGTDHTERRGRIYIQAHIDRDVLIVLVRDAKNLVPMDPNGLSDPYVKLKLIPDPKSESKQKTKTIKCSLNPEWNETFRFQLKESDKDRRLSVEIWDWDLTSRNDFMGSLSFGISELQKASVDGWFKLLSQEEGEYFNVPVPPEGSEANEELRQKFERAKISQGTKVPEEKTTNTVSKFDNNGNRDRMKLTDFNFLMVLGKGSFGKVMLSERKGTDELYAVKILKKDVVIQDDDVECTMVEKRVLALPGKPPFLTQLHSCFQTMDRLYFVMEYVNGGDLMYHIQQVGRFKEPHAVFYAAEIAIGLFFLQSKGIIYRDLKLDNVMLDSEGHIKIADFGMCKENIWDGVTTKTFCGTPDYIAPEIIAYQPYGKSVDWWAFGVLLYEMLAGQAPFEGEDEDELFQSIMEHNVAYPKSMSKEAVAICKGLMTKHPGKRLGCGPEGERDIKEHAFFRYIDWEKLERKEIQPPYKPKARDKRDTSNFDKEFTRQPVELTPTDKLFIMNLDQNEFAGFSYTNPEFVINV
In words: Western-blot competition, cell extracts: PRE at 10X/20X the anti-PKC beta I primary antibody concentration competes with that antibody; band densitometry (lower band = PRE bound).

Test [8] concerns the target T7, PKC-ε in extracts of human cell lines (human, UniProt Q02156 1-737).
T7 construct: Denatured on the Western blot membrane; also called PKC-epsilon (cell extract)
T7 sequence (looked up): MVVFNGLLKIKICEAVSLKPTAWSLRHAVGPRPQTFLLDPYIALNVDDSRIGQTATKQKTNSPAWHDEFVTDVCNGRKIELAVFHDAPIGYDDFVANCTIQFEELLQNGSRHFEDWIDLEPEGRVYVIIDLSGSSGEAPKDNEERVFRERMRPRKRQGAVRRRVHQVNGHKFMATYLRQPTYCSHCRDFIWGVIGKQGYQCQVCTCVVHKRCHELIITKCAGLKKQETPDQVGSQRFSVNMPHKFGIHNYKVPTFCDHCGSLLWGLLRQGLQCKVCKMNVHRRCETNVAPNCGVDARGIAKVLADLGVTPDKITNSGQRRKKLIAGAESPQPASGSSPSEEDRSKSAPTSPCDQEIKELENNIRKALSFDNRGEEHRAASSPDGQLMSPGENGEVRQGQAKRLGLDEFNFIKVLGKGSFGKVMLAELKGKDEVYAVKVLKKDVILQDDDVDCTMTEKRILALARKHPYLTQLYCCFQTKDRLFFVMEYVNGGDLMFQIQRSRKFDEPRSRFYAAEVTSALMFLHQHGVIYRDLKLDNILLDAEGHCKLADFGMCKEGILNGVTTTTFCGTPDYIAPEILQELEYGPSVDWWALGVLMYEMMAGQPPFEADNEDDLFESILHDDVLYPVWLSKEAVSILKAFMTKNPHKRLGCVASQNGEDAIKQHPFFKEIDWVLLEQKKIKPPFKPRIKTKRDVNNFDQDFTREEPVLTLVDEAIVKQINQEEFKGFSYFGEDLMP
Description: Western-blot competition, cell extracts: PRE at 10X/20X the anti-PKC epsilon primary antibody concentration competes with that antibody; band densitometry (lower band = PRE bound).

T2 sequence (P05771 whole entry, canonical isoform): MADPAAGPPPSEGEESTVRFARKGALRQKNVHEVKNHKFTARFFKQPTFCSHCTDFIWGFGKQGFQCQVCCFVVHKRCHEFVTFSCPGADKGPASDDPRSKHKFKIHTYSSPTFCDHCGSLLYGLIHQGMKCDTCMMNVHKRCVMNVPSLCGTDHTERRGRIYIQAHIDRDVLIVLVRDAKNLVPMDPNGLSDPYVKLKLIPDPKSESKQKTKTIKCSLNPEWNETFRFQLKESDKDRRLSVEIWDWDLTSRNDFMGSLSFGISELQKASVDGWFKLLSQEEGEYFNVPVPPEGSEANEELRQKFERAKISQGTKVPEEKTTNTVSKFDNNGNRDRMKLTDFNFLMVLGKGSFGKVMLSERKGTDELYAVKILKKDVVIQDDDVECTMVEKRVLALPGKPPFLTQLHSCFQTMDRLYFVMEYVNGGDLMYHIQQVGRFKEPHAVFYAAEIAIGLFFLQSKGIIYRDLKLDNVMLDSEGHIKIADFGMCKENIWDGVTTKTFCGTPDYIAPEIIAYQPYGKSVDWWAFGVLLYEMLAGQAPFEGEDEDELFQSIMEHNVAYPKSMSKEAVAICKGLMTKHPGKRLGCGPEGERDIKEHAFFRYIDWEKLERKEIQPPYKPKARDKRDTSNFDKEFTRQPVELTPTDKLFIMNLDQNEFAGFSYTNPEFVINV

B1: PRE 12 (peptide)
peptide: Ac-KDAQNLI-NH2
notes: Ac-KDAQNLI-NH2; also called peptide recognition element 12
With B1, the binding result was “no binding” with PKC-α, purified isoform; “no binding” in the test with PKC-βI, purified isoform; “no binding” in the test with PKC-ε, purified isoform [1]; “no binding (tested: 20X the primary antibody concentration)” in test [5]; “binds” in [6]; “no binding (tested: 20X the primary antibody concentration)” in test [7]. Besides, the binding result in test [8] was “no binding (tested: 20X the primary antibody concentration)”. The relative binding capacity with PKC-ε, purified isoform [2] turned out to be 10.4%; with PKC-ε, purified isoform [3], 0.28%; with PKC-ε, purified isoform [4], 0%.
